The values that follow come from the supplement of paper PMC11246515.

A short description of the series: total protein half-life in vivo (active degradation + dilution); higher = more stable protein.
Setting [1] is: E. coli NCM3722 delta-clpP delta-lon delta-hslV, growth: N-lim chemostat, doubling time 6 h.
Where [2] appears, read: E. coli NCM3722 delta-clpP, growth: N-lim chemostat, doubling time 6 h.
The mark [3] stands for this setting: E. coli NCM3722 delta-hslV, growth: N-lim chemostat, doubling time 6 h.
The mark [4] stands for this setting: E. coli NCM3722 delta-lon, growth: N-lim chemostat, doubling time 6 h.
The mark [5] stands for this setting: E. coli NCM3722 delta-smpB, growth: N-lim chemostat, doubling time 6 h.
[6] abbreviates: wild type E. coli NCM3722, growth: C-lim chemostat, doubling time 3 h.
The mark [7] stands for this setting: wild type E. coli NCM3722, growth: C-lim chemostat, doubling time 6 h.
The mark [8] stands for this setting: wild type E. coli NCM3722, growth: N-lim chemostat, doubling time 6 h.
The mark [9] stands for this setting: wild type E. coli NCM3722, growth: N-lim chemostat, doubling time 12 h.
The mark [10] stands for this setting: wild type E. coli NCM3722, growth: P-lim chemostat, doubling time 6 h.
[11] abbreviates: wild type E. coli NCM3722, growth: P-lim chemostat, doubling time 12 h.
[12] abbreviates: wild type E. coli NCM3722, growth: C-lim chemostat, doubling time 12 h.

± gives the standard deviation of the averaged measurements. Bounds are passed on as bounds.

As for “MLQHYSVSWKKGLAALCLLAVAGLSGCDQQENAAAKVEYDGLSNSQPLRVDANNHTVTMLVQINGRFLTDDTRHGIVFKDGSNGHKSLFMGYATPKAFYEALKEAGGTPGENMTMDNKETTHVTGSKLDISVNWQGAAKAYSFDEVIVDSNGKKLDMRFGGNLTAAEEKKTGCLVCLDSCPVGIVSNATYTYGAVEKRGEVKFKGNASVLPADNTLATVTFKIAE”, the “total protein half-life in vivo” value was found to be 5.59 ± 0.95 h under setting [1]; 6.08 ± 0.12 h under setting [2]; 6.34 ± 0.64 h under setting [3]; 6.31 ± 0.53 h under setting [4]; 6.66 ± 0.39 h under setting [5]; 2.87 ± 0.32 h under setting [6]. The “total protein half-life in vivo” value runs as follows: under setting [7], 6.91 ± 0.16 h; under setting [8], 6.55 ± 0.35 h; under setting [9], 12.4 ± 0.69 h; under setting [10], 4.96 ± 0.71 h; under setting [11], 14.84 ± 0.069 h.

On to “MDLTQLEMFNAVAEAGSITQAAAKVHRVPSNLTTRLRQLETELGVDLFIRENQRLRLSPAGHNFLRYSQQILALVDEARSVVAGDEPQGLFSLGSLESTAAVRIPATLAEFNRRYPKIQFSLSTGPSGTMLDGVLEGKLNAAFIDGPINHTAIDGIPVYREELMIVTPQGYAPVTRASQVNGSNIYAFRANCSYRRHFESWFHADGAAPGTIHEMESYHGMLACVIAGAGIALIPRSMLESMPGHHQVEAWPLAEQWRWLTTWLVWRRGAKTRPLEAFIQLLDVPDSARQGYQ”, for which the “total protein half-life in vivo” value was over 8 h under setting [1]; 5.2 h under setting [2]; 4.72 h under setting [3]; 4.66 h under setting [4]; 4.76 h under setting [5]; 2.76 h under setting [6]. The “total protein half-life in vivo” value under setting [12] was 8.27 h, the “total protein half-life in vivo” value under setting [9] is 12.1 ± 2.1 h, the “total protein half-life in vivo” value under setting [10] worked out at 6.44 ± 1 h and the “total protein half-life in vivo” value under setting [11] stood at 10.7 ± 2.1 h.

On to “MLDKLDAALRFQQEALNLRAQRQEVLAANIANADTPGYQARDIDFASELKKVMQRGRDATSVVALTMTSTQHIPAQALTPPTAELQYRIPDQPSLDGNTVDMDRERTQFADNSLQYQMSLSALSGQIKGMMNVLQSGN [P0ABW9]”, for which the “total protein half-life in vivo” value under setting [6] stood at 1.32 h.

Take “MPIQVLPPQLANQIAAGEVVERPASVVKELVENSLDAGATRIDIDIERGGAKLIRIRDNGCGIKKDELALALARHATSKIASLDDLEAIISLGFRGEALASISSVSRLTLTSRTAEQQEAWQAYAEGRDMNVTVKPAAHPVGTTLEVLDLFYNTPARRKFLRTEKTEFNHIDEIIRRIALARFDVTINLSHNGKIVRQYRAVPEGGQKERRLGAICGTAFLEQALAIEWQHGDLTLRGWVADPNHTTPALAEIQYCYVNGRMMRDRLINHAIRQACEDKLGADQQPAFVLYLEIDPHQVDVNVHPAKHEVRFHQSRLVHDFIYQGVLSVLQQQLETPLPLDDEPQPAPRSIPENRVAAGRNHFAEPAAREPVAPRYTPAPASGSRPAAPWPNAQPGYQKQQGEVYRQLLQTPAPMQKLKAPEPQEPALAANSQSFGRVLTIVHSDCALLERDGNISLLSLPVAERWLRQAQLTPGEAPVCAQPLLIPLRLKVSAEEKSALEKAQSALAELGIDFQSDAQHVTIRAVPLPLRQQNLQILIPELIGYLAKQSVFEPGNIAQWIARNLMSEHAQWSMAQAITLLADVERLCPQLVKTPPGGLLQSVDLHPAIKALKDE”: the “total protein half-life in vivo” value is, setting by setting: under setting [1], 5.64 ± 0.16 h; under setting [2], 5.376 ± 0.017 h; under setting [3], 4.58 ± 0.16 h; under setting [4], 5.29 ± 0.063 h; under setting [5], 4.59 ± 0.048 h; under setting [6], 3.002 ± 0.009 h. In addition, the “total protein half-life in vivo” value is, setting by setting: under setting [7], 5.614 ± 0.0069 h; under setting [12], 9.34 ± 0.55 h; under setting [8], 4.635 ± 0.043 h; under setting [9], 8.197 ± 0.054 h; under setting [10], 5.43 ± 0.11 h; under setting [11], 10.2 ± 0.69 h.

In the case of “MNIIEANVATPDARVAITIARFNNFINDSLLEGAIDALKRIGQVKDENITVVWVPGAYELPLAAGALAKTGKYDAVIALGTVIRGGTAHFEYVAGGASNGLAHVAQDSEIPVAFGVLTTESIEQAIERAGTKAGNKGAEAALTALEMINVLKAIKA”, the “total protein half-life in vivo” value by setting is: under setting [2], 6.4 ± 0.16 h; under setting [3], 6.59 ± 0.59 h; under setting [5], 5.79 ± 0.1 h; under setting [6], 3.16 ± 0.054 h; under setting [7], 6.41 ± 0.27 h; under setting [12], 13.7 ± 0.27 h. The “total protein half-life in vivo” value was 6.17 ± 0.85 h under setting [8], 12.8 ± 0.8 h under setting [9], 5.73 ± 0.29 h under setting [10] and 13.6 ± 0.3 h under setting [11].

Turning to “MKSTSDLFNEIIPLGRLIHMVNQKKDRLLNEYLSPLDITAAQFKVLCSIRCAACITPVELKKVLSVDLGALTRMLDRLVCKGWVERLPNPNDKRGVLVKLTTGGAAICEQCHQLVGQDLHQELTKNLTADEVATLEYLLKKVLP”, the “total protein half-life in vivo” value under setting [1] was determined as 4.66 ± 0.39 h; the “total protein half-life in vivo” value under setting [2] was 6.71 h; the “total protein half-life in vivo” value under setting [3] was over 8 h; the “total protein half-life in vivo” value under setting [5] was determined as 4.66 ± 0.12 h; the “total protein half-life in vivo” value under setting [7] was determined as 5.68 ± 0.62 h; the “total protein half-life in vivo” value under setting [12] turned out to be 11.7 ± 2.1 h. Also, the “total protein half-life in vivo” value turned out to be 4.4 ± 0.066 h under setting [8], 7.75 ± 0.37 h under setting [9], 3.68 h under setting [10] and 10.8 h under setting [11].

Regarding “MVIGPFINASAVLLGGVLGALLSQRLPERIRVSMTSIFGLASLGIGILLVVKCANLPAMVLATLLGALIGEICLLEKGVNTAVAKAQNLFRHSRKKPAHESFIQNYVAIIVLFCASGTGIFGAMNEGMTGDPSILIAKSFLDFFTAMIFACSLGIAVSVISIPLLIIQLTLAWAAALILPLTTPSMMADFSAVGGLLLLATGLRICGIKMFPVVNMLPALLLAMPLSAAWTAWFA”, the “total protein half-life in vivo” value under setting [2] came out at 6.45 h and the “total protein half-life in vivo” value under setting [9] was 10.8 h.

On to “MIKLSEKGVFLASNNEIIAEEHFTGEIKKEEAKKGTIAWSILSSHNTSGNMDKLKIKFDSLASHDITFVGIVQTAKASGMERFPLPYVLTNCHNSLCAVGGTINGDDHVFGLSAAQRYGGIFVPPHIAVIHQYMREMMAGGGKMILGSDSHTRYGALGTMAVGEGGGELVKQLLNDTWDIDYPGVVAVHLTGKPAPYVGPQDVALAIIGAVFKNGYVKNKVMEFVGPGVSALSTDFRNSVDVMTTETTCLSSVWQTDEEVHNWLALHGRGQDYCQLNPQPMAYYDGCISVDLSAIKPMIALPFHPSNVYEIDTLNQNLTDILREIEIESERVAHGKAKLSLLDKVENGRLKVQQGIIAGCSGGNYENVIAAANALRGQSCGNDTFSLAVYPSSQPVFMDLAKKGVVADLIGAGAIIRTAFCGPCFGAGDTPINNGLSIRHTTRNFPNREGSKPANGQMSAVALMDARSIAATAANGGYLTSASELDCWDNVPEYAFDVTPYKNRVYQGFVKGATQQPLIYGPNIKDWPELGALTDNIVLKVCSKILDEVTTTDELIPSGETSSYRSNPIGLAEFTLSRRDPGYVSRSKATAELENQRLAGNVSELTEVFARIKQIAGQEHIDPLQTEIGSMVYAVKPGDGSAREQAASCQRVIGGLANIAEEYATKRYRSNVINWGMLPLQMAEVPTFEVGDYIYIPGIKAALDNPGTTFKGYVIHEDAPVTEITLYMESLTAEEREIIKAGSLINFNKNRQM”, for which the “total protein half-life in vivo” value under setting [2] was found to be 5.63 h; the “total protein half-life in vivo” value under setting [3] is 6.45 h; the “total protein half-life in vivo” value under setting [6] came to 1.12 h; the “total protein half-life in vivo” value under setting [7] came to 1.87 ± 0.76 h; the “total protein half-life in vivo” value under setting [10] was determined as 2.37 h; the “total protein half-life in vivo” value under setting [11] amounted to 1.31 ± 0.42 h.

“MTEVRRRGRPGQAEPVAQKGAQALERGIAILQYLEKSGGSSSVSDISLNLDLPLSTTFRLLKVLQAADFVYQDSQLGWWHIGLGVFNVGAAYIHNRDVLSVAGPFMRRLMLLSGETVNVAIRNGNEAVLIGQLECKSMVRMCAPLGSRLPLHASGAGKALLYPLAEEELMSIILQTGLQQFTPTTLVDMPTLLKDLEQARELGYTVDKEEHVVGLNCIASAIYDDVGSVVAAISISGPSSRLTEDRFVSQGELVRDTARDISTALGLKAHP [P0ACN4]”: the “total protein half-life in vivo” value by setting is: under setting [2], 5.13 ± 0.62 h; under setting [3], 5.12 ± 0.34 h; under setting [4], 4.42 ± 0.94 h; under setting [5], 4.4 ± 0.4 h; under setting [6], 2.79 ± 0.13 h; under setting [7], 5.64 ± 0.18 h. The “total protein half-life in vivo” value is 11 ± 0.97 h under setting [12]; 4.91 ± 0.23 h under setting [8]; 9.46 ± 0.2 h under setting [9]; 5.44 ± 0.41 h under setting [10]; 11.1 ± 0.81 h under setting [11].
